The assay addresses recombinant human NPR3 extracellular domain portion (amino acids Gly27-Ser482) fused to the Fc portion of mouse IgG2a (human; mouse) (UniProt P17342). Kind of assay: blocking ELISA, plate-coated hNPR3-mFc, competitor biotin-hANP, 1 µg/mL control antibody.
Chain of UniProt P17342 (P17342 27-482 limits assumed): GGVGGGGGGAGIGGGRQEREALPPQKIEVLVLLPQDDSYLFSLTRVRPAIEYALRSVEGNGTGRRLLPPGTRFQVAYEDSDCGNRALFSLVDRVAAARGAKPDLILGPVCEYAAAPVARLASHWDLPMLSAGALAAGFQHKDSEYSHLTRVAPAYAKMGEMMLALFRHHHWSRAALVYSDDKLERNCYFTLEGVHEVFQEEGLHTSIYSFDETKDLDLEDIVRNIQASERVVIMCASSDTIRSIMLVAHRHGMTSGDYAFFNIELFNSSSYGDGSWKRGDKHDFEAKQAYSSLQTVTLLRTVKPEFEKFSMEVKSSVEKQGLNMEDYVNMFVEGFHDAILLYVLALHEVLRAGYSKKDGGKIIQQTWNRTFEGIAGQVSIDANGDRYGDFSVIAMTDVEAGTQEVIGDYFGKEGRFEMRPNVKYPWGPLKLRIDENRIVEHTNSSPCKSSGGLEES

With “non-binding human IgG1 isotype control antibody (blocking ELISA)”, the percent blockade was 32%.

The values above are taken from patent US20220195014A1.
